Results taken from the nanobody polyreactivity screen of Harvey et al. (2022).

assay: yeast display, Sf9 membrane polyspecificity reagent, FACS + sequencing; frameworks hold sequencing errors
In short: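 Sorting gates, low and high (top ~1%), were placed on anti-HA fluorescence to track expression and on streptavidin fluorescence to track reagent binding. A clone's polyreactivity label is taken from the gate it came out of. The reagent was 10% biotinylated, detergent-solubilized Sf9 membrane, applied for 1 hour at 4 °C to galactose-induced yeast display cells.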

Sequence | polyreactivity (PSR sort gate)
QVQLVESGGGLVQAGGSLSLSCAASGSTFNRNAMGWDRQAPGKEREFVAAITWSGGSTYYADSVKGRFTISRDNAKNTVYLQMNSLKPEDTAVYYCNADRFSSRHSYDYWGQGTQVTVSS | low polyreactivity
QVQLVESGGGLVQAGGSLSLSCAASGSTFVYNAMGWYRKAPGKERELVAAISSGGSTNYADSVKGRFTISRDNAKNTVYFQMKSLKPEDNRSEYSRYVVYDYWGQGTQVTVSS | low polyreactivity
QVQLVESGGGLVQAGGSLSLSCAASGYTFPYYTMGWYRQAPGKERELVATITRRGDSTYYADSVKGRFTISRDNAKNTVYLQMNSLKPEDTAVYYCNTASYGRHQFRKSSKMDYWGQGTQVTVSS | high polyreactivity
QVQLVESGGGLVQAGGSLSLSCAATGFTFRPYAMAWYRQATGKERELVAAITSGDSTNYADSVKGRFTISRDNAKKSVYLQMISVKAEDTAVFYCAADSTGRPSVSYDYWGQGTQVTVSS | low polyreactivity
QVQLVESGGGLVQAGGSLSLSCAATGINYGDYAMGWYRQAPGKERELVAAISSDTSTNYADSVKGRFTISRDNAKNTVYLQMNSLKPEDTAVYECAAEGSYYGWYQGFDYWGQGTQVTVSS | low polyreactivity
QVQLVESGGGLVQAGGSLSLSCAATGRIFDGNVMGWYRQAPGKERELVAAISSGDSTNYADSVKGRFTISRDNAKNTVYLQRNSLKTEDTAVYDCNRTPNSGGYDRFYGGDFYYWGQGTQVTVSS | low polyreactivity
QVQLVESGGGLVQAGGSLSLSCAATGRTFVKNAMGWYRQAPGKERELVASISRSGGSTYYADSVKGRFTISRDTAKNTVYLQMNSLKTEDTAVYYCNAAVYGGYSRSRYGYWGQGTQVTVSS | high polyreactivity
QVQLVESGGGLVQAGGSLSLSCAATGSTFSLYAMGWYIQAPGKERELVAAISSSGGSTYYADSVKGRFTISRDNAKNTVYLQMNSLKPEDTAVYYCAAYRVGSYDYWGQGTQVTVSS | high polyreactivity
QVQLVESGGGLVQAGGSLSLSCAAYGFTFERNGMGWYRQAPGKERELVAAISIRGGSTYYADSVKGRFTMSRDNAKNTVSLQMNSLKPEDTAVYYCAVVARRAFDYWGQGTQVTVSS | high polyreactivity
QVQLVESGGGLVQAGGSLSLSCAAYGRTFTYYAMGWYRPAPGKERELVAVISSGGRTYYADSVKGRFTISRDNAKITVSFQMNSLKPDDKGVYYCNAASPRYLVEYDFWGQGTQVTVSS | high polyreactivity
QVQLVESGGGLVQAGGSLSLSCAAYGRTSPIYAMGWYRQAPGKERELVASITRCTRTNYADSVKGRFTISRDNAKNTVYLQMNSLKPEDTAVYYCAAVSYSYSLNAYDYWGQGTQVTVSS | low polyreactivity
QVQLVESGGGLVQAGGSLSLSCAAYGSTFDPNDMGWYRQAPGKERELVAVIDSGDGTTYYADSVKGRFTISRDNAKNTVYLQMNRLKPEDTAVYYCAVDESTSYYDDHEDYWGQGTQVTVSS | low polyreactivity
QVQLVESGGGLVQAGGSLSLSCAAYGSTFLRNAMGWYRQAPGKKGSWVATISYDGDSTYYADSVKGRFTISRDNAKNTVYLQMYSLKPEDTAVYYCAASYSLTFWDKDDYWGQGTQVTVSS | low polyreactivity
QVQLVESGGGLVQAGGSLSLSCADSAGTFKTNAKGWYRQAPGKERELVAAITGSGTSTYYADSVKGRFTSSRDNAKNTVYFQMNSLKPEDTAVYYCAADKLYQPGIGDDYWGQGTQVTLSS | low polyreactivity
QVQLVESGGGLVQAGGSLSLSCASSGSIFVRNVMGWYRQAPWKERELVATIRTRGGSTSYADSVKGRFTISRDNAKNTVYLQMNSLTPEDTAVYYCNARLSYRSAWYYGGDRYDYWGQGTQVTVSS | high polyreactivity
QVQLVESGGGLVQAGGSLSLSFAASGRTFGYYDMGRYRQAPGKEREFVAAITWSGGNTYADSVKGRFTISRDNAKNTVYLQMNSLKPEDTAVYYCNAVVRAYYTSIWVPRYDYWGQATQVTVSS | high polyreactivity
QVQLVESGGGLVQAGGSLSLSSAATGNIFRNNAMGWYRQAPGKERELGAAISYSGGRTFYADSVKGRFTISRDNAKNTVYLQMNSLKPEDTAVYYCAVTYGRNADDYEYWGQGTQVTVSS | high polyreactivity
QVQLVESGGGLVQAGGSLSLTCAASGRIFSYYAMGWYRQAPGKERELVAGISRGTSTYYADSVKGRFTISRDNAKNTVYLQMNSLKPEDTAVYYCAADYFSYYSPYRYGYWGQGTQVTVSS | high polyreactivity
QVQLVESGGGLVQAGGSNRLSCAASGFTFYRNVMGWYRQAPGKERELVAARTWNGGTTYYADSEKGRFTISRDTAKSSVYLQMDSLQREDTAVYFCAAASRHTGSYRFYYWGQGTQVTVSS | high polyreactivity
QVQLVESGGGLVQAGGSQRLSCAASGRTFRGNAMGWYRQAPGKERELVATINSGGSTNYADSVKGRFTISRDKAKNTVYLQMNSLIPEDTAVYYCAAVKYFRWKYNYWGQGTQVTVSS | high polyreactivity
QVQLVESGGGLVQAGGSRRLSCAASGFTFSQYTRGWYRQAPGKERELVAAISSGSSTYYADSVKGRFTISRDNAKNTVYLQMNSLKPEDTAVYYCAARVGWYTWGYYWGQGTQVTVSS | high polyreactivity
QVQLVESGGGLVQAGGSRRLSCAASGFTFSSYAMGWYRQAPGKERELVASISWRGGITYYADSVKGRFTISRDNAKNTVYLQMNSLKPEDTAVYYCAAVAFFRPKFYYWGQGTQVTVSS | high polyreactivity

Sequence | polyreactivity (PSR sort gate)
QVQLVESGGGLVQAGGSRRLSCAASGLIFYYYAMGWYRQAPGKERELVAAISGSGGSTYYADSVKGRFTISRDNAKNTVYLQMNSLKPEDTAVYYCNKLSWRKYLGYEYWGQGTQVTVSS | high polyreactivity
QVQLVESGGGLVQAGGSRRLSCAASGRIFRIYAMGWYRQAPGKERELVAAITWSGGSTYYADSVKGRFPISRDNAKNTVYLQMNSLKPEDTAVYYGAAKARSNKYNYWGQGTQVTVSS | high polyreactivity
QVQLVESGGGLVQAGGSRRLSCAASGRIFSQNTRGCYRQAPAKERELVAVISWRCGRTSYSDSVKGRFTISRDNSKNTVFLKMKSLKQEDTAVYYCAASAKLHYYRTYRYNYWGQGTQVTVSS | high polyreactivity
QVQLVESGGGLVQAGGSRRLSCAASGRTFVGTAMGWSRQAPGKERELVAAMSGDGSTNYADSVKGRFTISRDNAKNTVYLQMNSLKPEDTAVYYCAADGVTRYYQRTYTRYGYWGQGTQVTVSS | low polyreactivity
QVQLVESGGGLVQAGGSRRLSCAASGSIFTGYAMGWYRQSPGKERELVAAINSNGGRTYYADSVKGRFTISRDNAKNTVYLQMNSLKPEDTAVYYCAADSGRGYRYKTFNWGRFYWGQGTQVTVSS | high polyreactivity
QVQLVESGGGLVQAGGSRRLSCAASGSTFEYNAMGWYRQAPGKERELVASSTNYADSVKGRFTISRDNAKNTVYLPMNSLKPEDTAVYYCAREQGVNRNHDYWGQGTQVTVSS | low polyreactivity
QVQLVESGGGLVQAGGSRRLSCAASGSTFSSYAKGWYRQAPGQERELVAAISSSGSRTYYADSVKGRFTISRDNAKNTVYLQMNSLKPEDTAVYYCAADYYYNTKLDYWGQGSQVTVSS | high polyreactivity
QVQLVESGGGLVQAGGSRRLSCAGSGRIFHYYAMGWYRPAPGTERELVAAISRTGSTYYADSVKGRFTISRDNAINTVYLQMNSLKPEDTAVYYCAADYWPQSNRWVYFRYGYWGQGTQVTVSS | high polyreactivity
QVQLVESGGGLVQAGGSRRLSCDASGRTFGYYAMGWYRQAPGKERELVAAISSSGGSTYYADSVKRRFTISRDNAKNTVYLQMNRLKPEDTAVYYCAADTSDTPDYYYWGPGTQVTVSS | low polyreactivity
QVQLVESGGGLVQAGGSRRLSWAASGFIFARNTMGWYRQAPGTERELVAAITKSGGSTYYADSVKGRFTISRDNAKNTVYLQMNILKPEDTAVYYCGARSYTLRGVYFSGYDYWGQGTQVTVSS | low polyreactivity
QVQLVESGGGLVQAGGSRSLSCAASGSTFYSYAMGWYRQAPGKERELVAAINWDGVSTYYADSVKGRFTISRDNAKNTVYLQMNSLKPEDTAVYYCAAELFSGYRISGTYYYWGQGTQVTVSS | low polyreactivity
QVQLVESGGGLVQAGGSVRLSCAASGLTFQRYAMGGYRQAPGKERELVASITGNGGSTYYADSVKGRFSISRDNAKNTVYLQMNSLKPEDTAVYYCNARRYVRTCQQPLYDYWGQGTQVTVSS | high polyreactivity
QVQLVESGGGLVQAGGSVRLSCAASGSIFQYNTMGWYRQAPGKDRELFADINGRGGSTYYADSVKGRFTISRDNAKNTVYLQMNSLKPEDTGVYYCNARVFGGYSKYLFIGRYYWGQGTQVTVSS | low polyreactivity
QVQLVESGGGLVQAGGTLRFSCAASGSILEYYTMGWDRQAPGKERELVAAISASGGNTYYADSVKGRFTISRANAKNTVYFQMNSLKPEDTAVYYCNAYYGPRGYGYWGQGTQVTVSS | high polyreactivity
QVQLVESGGGLVQAGGTLRISCAPSGRIFNTNAMRWYRQAPGKERELVAGITDSGDSTYYADSVKGRFTISRDNAKNTVYLQMISLKPEDTAVYYCATDPASPYIYDYWGQGTQVTVSS | low polyreactivity
QVQLVESGGGLVQAGGTLRLICAASGLTFGRYAMGWYRQAPGKERELVASISQRGGSTYYADSVKGRFTISRDNAKNTVYLQMNSLKPEDTAVYYCAARRYYRGEYDYWGQGTQVTVSS | low polyreactivity
QVQLVESGGGLVQAGGTLRLNSAASGRNFYDYAMRWYRQAPGKERELVASISGGGSTDYADSVKGRFTISRDNAKNTVDFQMNSLNPEDTAVYYCAAQYYLYRSRFDYWGQGTQVTVSS | high polyreactivity
QVQLVESGGGLVQAGGTLRLRCAASGRTFKDYAMGWYRQAPGKERELVAAISWSGGDTYYADSVKGRFTISRDNAKNTVYFQLNSLKPEDTAVYYCNADPSGVFFYSLEFDYWGQGTQVTVSS | low polyreactivity
QVQLVESGGGLVQAGGTLRLSCAASGGTFRRYAMGWYRQAPGKERELVAAISWTGGSTYYADSVKGRFTISRDNAKNTVYLQMNSLKPEDSAVYYCAAVGSSSSKGGYWGQGTQVTVSS | high polyreactivity
QVQLVESGGGLVQAGGTLRLSCAASGIIFDRNVMGWYRQAPGKERELVAAITRNGGNTYYADSVKGRFTISRDNAKNTVYLQLNSLKPEDTAVYYCNAKYWPFSRWYYFWGQRTQVTVSS | high polyreactivity
QVQLVESGGGLVQAGGTLRLSCAASGIIFLVNAMGWYRQAPGKERELVATITSGGSTYADSVKGRFTISRDNAKNTVYLQMNSLKPEDTAVYYCAAVRRRRNSYGYWGQGTQVTVSS | high polyreactivity
